For the data set, the system named is aggregated human αSyn. The data set is described as follows: Antibody-inducing ability in mice: ELISA antibody titer of immune serum with respect to aggregated human αSyn. The format is in vivo, mouse. In a few lines:
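Female balb/c mice (6 weeks) immunized i.m. twice, 2 weeks apart, with conjugate (250 μg/mouse) or KLH-DMPVDPDN (25 μg/mouse) plus Alum (50 μg/mouse); serum taken 2 weeks after second dose. ELISA on plates coated with aggregated human αSyn (15 ng/well), anti-mouse IgG-HRP, TMB, A450; titers expressed relative to reference conjugate set to 1 (log).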
(In general: An ELISA detects its analyte on a solid surface through an enzyme-linked reagent.)

No end group written: not given here. KLH = keyhole limpet hemocyanin

“KLH-C-DMPVDPDN ({KLH}-CDMPVDPDN) [KLH-DMPVDPDN, comparison vaccine, reference compound]”: the “Antibody-inducing ability regarding the aggregated human αSyn (in words)” value (Example 2, balb/c mice) is “very weak”. Also, the “Antibody titer with respect to aggregated human αSyn (N = 4 − 6, mean ± standard deviation)” value (Example 2, balb/c mice, i.m. twice at 2-week interval, Alum, AJ conjugates 250 μg/mouse, KLH-DMPVDPDN 25 μg/mouse, serum 2 weeks after second administration) is on record as 208 ± 205. Besides, the “Induction of the antibody to aggregated human αSyn (in words)” value (Example 4, balb/c mice) is reported as “did not induce the antibody to aggregated human αSyn”. The “Antibody titer with respect to aggregated human αSyn (mean ± standard deviation)” value (Example 4, balb/c mice, i.m. twice at 2-week interval, Alum, AJ conjugates 250 μg/mouse, KLH-DMPVDPDN 25 μg/mouse) turned out to be 36 ± 20.

(Values after patent publication US20240270801A1, “EPITOPE PEPTIDE OF HUMAN ALPHA-SYNUCLEIN AND PHARMACEUTICAL COMPOSITION INCLUDING SAID PEPTIDE” (Sumitomo Pharma Co., Ltd., priority 2021, published 2024).)
